According to patent US20100183520A1:

Target: UNC5B netrin-1 receptor on mouse leukocytes / CD4+ T cells (mouse) (UniProt Q8K1S3)
Experiment: cell-based or functional assay

Chain of UniProt Q8K1S3 (Q8K1S3 27-945): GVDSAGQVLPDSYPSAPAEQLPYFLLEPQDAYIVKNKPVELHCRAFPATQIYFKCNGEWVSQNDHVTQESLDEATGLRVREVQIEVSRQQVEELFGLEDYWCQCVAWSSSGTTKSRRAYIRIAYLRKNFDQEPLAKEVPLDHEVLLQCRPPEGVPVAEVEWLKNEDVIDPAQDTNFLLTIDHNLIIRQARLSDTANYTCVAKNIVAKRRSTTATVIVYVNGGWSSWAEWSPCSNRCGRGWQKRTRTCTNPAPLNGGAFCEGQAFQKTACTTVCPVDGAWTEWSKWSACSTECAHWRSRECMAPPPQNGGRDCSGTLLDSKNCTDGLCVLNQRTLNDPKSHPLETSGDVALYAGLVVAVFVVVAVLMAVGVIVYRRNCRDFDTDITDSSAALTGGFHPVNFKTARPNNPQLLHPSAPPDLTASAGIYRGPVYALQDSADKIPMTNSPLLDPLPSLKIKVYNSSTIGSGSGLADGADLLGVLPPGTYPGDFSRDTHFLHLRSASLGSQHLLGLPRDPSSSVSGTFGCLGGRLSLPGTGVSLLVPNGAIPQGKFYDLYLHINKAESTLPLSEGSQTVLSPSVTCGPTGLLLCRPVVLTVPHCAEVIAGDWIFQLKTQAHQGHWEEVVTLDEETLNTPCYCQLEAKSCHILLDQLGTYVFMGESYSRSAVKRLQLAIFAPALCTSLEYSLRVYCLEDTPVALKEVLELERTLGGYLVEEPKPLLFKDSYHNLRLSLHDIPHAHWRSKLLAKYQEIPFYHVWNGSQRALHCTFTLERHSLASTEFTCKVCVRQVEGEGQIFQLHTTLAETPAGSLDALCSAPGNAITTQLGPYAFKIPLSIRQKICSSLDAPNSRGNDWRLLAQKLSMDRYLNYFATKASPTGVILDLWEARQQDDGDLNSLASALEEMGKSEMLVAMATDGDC

inhibition of anti-CD3 stimulated cytokine production in CD4+CD25- T cells: netrin-1 concentration with maximal inhibition: 500 ng/mL | inhibition of anti-CD3 stimulated cytokine production in CD4+CD25- T cells: netrin-1 concentration with minimal effect: 100 ng/mL
Substance: recombinant netrin-1 (R&D Systems) (ligand)
